# Reference: IntAct's records for PubMed 24525233
# B1: Transcription cofactor vestigial-like protein 4 (Homo sapiens), Q14135 (parent)
# chain: METPLDVLSRAASLVHADDEKREAALRGEPRIQTLPVASALSSHRTGPPPISPSKRKFSMEPGDEDLDCDNDHVSKMSRIFNPHLNKTANGDCRRDPRERSRSPIERAVAPTMSLHGSHLYTSLPSLGLEQPLALTKNSLDASRPAGLSPTLTPGERQQNRPSVITCASAGARNCNLSHCPIAHSGCAAPGPASYRRPPSAATTCDPVVEEHFRRSLGKNYKEPEPAPNSVSITGSVDDHFAKALGDTWLQIKAAKDGASSSPESASRRGQPASPSAHMVSHSHSPSVVS
# Variants of: B1
# Settings: with tead4_human TEAD4, Q15561
# Chain of tead4_human TEAD4, Q15561 (Q15561 whole entry): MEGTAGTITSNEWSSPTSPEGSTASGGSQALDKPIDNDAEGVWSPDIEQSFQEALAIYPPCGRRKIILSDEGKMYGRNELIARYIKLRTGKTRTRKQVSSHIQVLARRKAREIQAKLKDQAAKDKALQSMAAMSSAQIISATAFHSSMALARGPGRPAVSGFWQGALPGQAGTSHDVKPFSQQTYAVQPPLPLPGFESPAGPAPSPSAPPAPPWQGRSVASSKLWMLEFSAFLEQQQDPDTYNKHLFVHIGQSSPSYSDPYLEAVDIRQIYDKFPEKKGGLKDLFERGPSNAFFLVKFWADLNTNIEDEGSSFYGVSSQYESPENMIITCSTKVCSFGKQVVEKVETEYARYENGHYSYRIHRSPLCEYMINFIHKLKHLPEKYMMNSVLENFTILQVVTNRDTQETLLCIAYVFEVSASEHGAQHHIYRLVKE
row,effect of a mutation on the interaction,Variant
1,decreasing interaction,H240A
2,disrupting interaction,H212A;F213A;H240A;F241A
3,decreasing interaction,L245A
4,decreasing interaction,H240A;F241A

# Variants of: B1
# Settings: with tead4_human TEAD4, Q15561
# Remark: another data set of the same source
row,effect of a mutation on the interaction,Variant
1,decreasing interaction,W249A
